This is an account of results in US20260001928A1 (CORTERIA PHARMACEUTICALS, priority 2022, published 2026).

The target of one experiment is T1, CRF1R receptor (UniProt P34998 24-415, limits assumed).
T1 sequence (looked up): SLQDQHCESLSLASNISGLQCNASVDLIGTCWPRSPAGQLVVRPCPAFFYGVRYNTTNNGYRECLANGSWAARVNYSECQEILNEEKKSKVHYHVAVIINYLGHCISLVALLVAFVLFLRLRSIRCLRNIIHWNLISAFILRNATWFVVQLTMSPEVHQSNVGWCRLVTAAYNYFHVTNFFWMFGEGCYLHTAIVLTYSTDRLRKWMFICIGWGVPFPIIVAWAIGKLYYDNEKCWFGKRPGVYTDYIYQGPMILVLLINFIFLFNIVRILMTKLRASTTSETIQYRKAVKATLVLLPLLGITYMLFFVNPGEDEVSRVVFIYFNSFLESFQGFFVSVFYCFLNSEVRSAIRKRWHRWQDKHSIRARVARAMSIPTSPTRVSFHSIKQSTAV
Description: cell-based or functional assay.

Experiment [1] concerns the target human corticotropin-releasing factor 2a (CRF2a receptor) (human), Q13324. Description: cell-based or functional assay.

*1 amine or outer side, *2 acyl side, *3 side chain or, on linkers, in order; H or OH if unused. Where no end group is shown, it is not given here. Side-chain parts run from the residue outwards. [ ]: non-standard residue; d: D form. The star is where a group is joined. C16 diacid = O=C(O)CCCCCCCCCCCCCCC(=O)*; γGlu = O=C(O)[C@H](CCC(=O)[*:2])N[*:1]; αMeL = CC(C)C[C@](C)(N)C(=O)O; Aib = CC(C)(N)C(=O)O

human corticotropin-releasing factor 2a (CRF2a receptor) (human), Q13324, sequence (Q13324 20-411): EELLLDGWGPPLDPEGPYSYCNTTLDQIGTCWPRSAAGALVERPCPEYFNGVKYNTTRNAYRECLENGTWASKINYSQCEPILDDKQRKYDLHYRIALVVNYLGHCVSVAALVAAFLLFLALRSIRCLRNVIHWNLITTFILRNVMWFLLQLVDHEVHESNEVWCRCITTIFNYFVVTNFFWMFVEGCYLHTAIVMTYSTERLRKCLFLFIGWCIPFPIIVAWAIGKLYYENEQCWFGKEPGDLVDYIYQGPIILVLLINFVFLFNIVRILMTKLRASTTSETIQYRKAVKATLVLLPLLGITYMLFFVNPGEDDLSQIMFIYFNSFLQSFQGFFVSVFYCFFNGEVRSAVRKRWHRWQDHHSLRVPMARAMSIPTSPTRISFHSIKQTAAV

B1: SEQ ID NO 20 (peptide)
peptide: Ac-IVLSLDVPIK[αMeL]K([γGlu-C16 diacid])Q[Aib]LLKQERQKKQREQAEKN[Aib]QILEQV-NH2
SMILES: CC[C@H](C)[C@H](NC(C)=O)C(=O)N[C@H](C(=O)N[C@@H](CC(C)C)C(=O)N[C@@H](CO)C(=O)N[C@@H](CC(C)C)C(=O)N[C@@H](CC(=O)O)C(=O)N[C@H](C(=O)N1CCC[C@H]1C(=O)N[C@H](C(=O)N[C@@H](CCCCN)C(=O)N[C@@](C)(CC(C)C)C(=O)N[C@@H](CCCCNC(=O)CC[C@H](NC(=O)CCCCCCCCCCCCCCC(=O)O)C(=O)O)C(=O)N[C@@H](CCC(N)=O)C(=O)NC(C)(C)C(=O)N[C@@H](CC(C)C)C(=O)N[C@@H](CC(C)C)C(=O)N[C@@H](CCCCN)C(=O)N[C@@H](CCC(N)=O)C(=O)N[C@@H](CCC(=O)O)C(=O)N[C@@H](CCCNC(=N)N)C(=O)N[C@@H](CCC(N)=O)C(=O)N[C@@H](CCCCN)C(=O)N[C@@H](CCCCN)C(=O)N[C@@H](CCC(N)=O)C(=O)N[C@@H](CCCNC(=N)N)C(=O)N[C@@H](CCC(=O)O)C(=O)N[C@@H](CCC(N)=O)C(=O)N[C@@H](C)C(=O)N[C@@H](CCC(=O)O)C(=O)N[C@@H](CCCCN)C(=O)N[C@@H](CC(N)=O)C(=O)NC(C)(C)C(=O)N[C@@H](CCC(N)=O)C(=O)N[C@H](C(=O)N[C@@H](CC(C)C)C(=O)N[C@@H](CCC(=O)O)C(=O)N[C@@H](CCC(N)=O)C(=O)N[C@H](C(N)=O)C(C)C)[C@@H](C)CC)[C@@H](C)CC)C(C)C)C(C)C
For the molecule B1, the “Emax (% I)” value with CRF1R receptor was 3%. Further, the EC50 [nM] (cAMP) in experiment [1] is 1.09 nM.

B2: SEQ ID NO 19 (peptide)
peptide: Ac-IVLSLDVPIK[αMeL]K([γGlu-C16 diacid])QILLKQERQKKQREQAEKN[Aib]QILEQV-NH2
SMILES: CC[C@H](C)[C@H](NC(C)=O)C(=O)N[C@H](C(=O)N[C@@H](CC(C)C)C(=O)N[C@@H](CO)C(=O)N[C@@H](CC(C)C)C(=O)N[C@@H](CC(=O)O)C(=O)N[C@H](C(=O)N1CCC[C@H]1C(=O)N[C@H](C(=O)N[C@@H](CCCCN)C(=O)N[C@@](C)(CC(C)C)C(=O)N[C@@H](CCCCNC(=O)CC[C@H](NC(=O)CCCCCCCCCCCCCCC(=O)O)C(=O)O)C(=O)N[C@@H](CCC(N)=O)C(=O)N[C@H](C(=O)N[C@@H](CC(C)C)C(=O)N[C@@H](CC(C)C)C(=O)N[C@@H](CCCCN)C(=O)N[C@@H](CCC(N)=O)C(=O)N[C@@H](CCC(=O)O)C(=O)N[C@@H](CCCNC(=N)N)C(=O)N[C@@H](CCC(N)=O)C(=O)N[C@@H](CCCCN)C(=O)N[C@@H](CCCCN)C(=O)N[C@@H](CCC(N)=O)C(=O)N[C@@H](CCCNC(=N)N)C(=O)N[C@@H](CCC(=O)O)C(=O)N[C@@H](CCC(N)=O)C(=O)N[C@@H](C)C(=O)N[C@@H](CCC(=O)O)C(=O)N[C@@H](CCCCN)C(=O)N[C@@H](CC(N)=O)C(=O)NC(C)(C)C(=O)N[C@@H](CCC(N)=O)C(=O)N[C@H](C(=O)N[C@@H](CC(C)C)C(=O)N[C@@H](CCC(=O)O)C(=O)N[C@@H](CCC(N)=O)C(=O)N[C@H](C(N)=O)C(C)C)[C@@H](C)CC)[C@@H](C)CC)[C@@H](C)CC)C(C)C)C(C)C
As for B2, the “Emax (% I)” value with CRF1R receptor is 6%. For the same molecule, the EC50 [nM] (cAMP) in experiment [1] was found to be 0.28 nM.

B3: SEQ ID NO 38 (peptide)
peptide: IVLSLDVPIK[αMeL]K([γGlu-C16 diacid])KILLEQEKQKKQREQAETN[Aib]QILAQV-NH2
modifications: N-terminus assumed
SMILES: CC[C@H](C)[C@H](N)C(=O)N[C@H](C(=O)N[C@@H](CC(C)C)C(=O)N[C@@H](CO)C(=O)N[C@@H](CC(C)C)C(=O)N[C@@H](CC(=O)O)C(=O)N[C@H](C(=O)N1CCC[C@H]1C(=O)N[C@H](C(=O)N[C@@H](CCCCN)C(=O)N[C@@](C)(CC(C)C)C(=O)N[C@@H](CCCCNC(=O)CC[C@H](NC(=O)CCCCCCCCCCCCCCC(=O)O)C(=O)O)C(=O)N[C@@H](CCCCN)C(=O)N[C@H](C(=O)N[C@@H](CC(C)C)C(=O)N[C@@H](CC(C)C)C(=O)N[C@@H](CCC(=O)O)C(=O)N[C@@H](CCC(N)=O)C(=O)N[C@@H](CCC(=O)O)C(=O)N[C@@H](CCCCN)C(=O)N[C@@H](CCC(N)=O)C(=O)N[C@@H](CCCCN)C(=O)N[C@@H](CCCCN)C(=O)N[C@@H](CCC(N)=O)C(=O)N[C@@H](CCCNC(=N)N)C(=O)N[C@@H](CCC(=O)O)C(=O)N[C@@H](CCC(N)=O)C(=O)N[C@@H](C)C(=O)N[C@@H](CCC(=O)O)C(=O)N[C@H](C(=O)N[C@@H](CC(N)=O)C(=O)NC(C)(C)C(=O)N[C@@H](CCC(N)=O)C(=O)N[C@H](C(=O)N[C@@H](CC(C)C)C(=O)N[C@@H](C)C(=O)N[C@@H](CCC(N)=O)C(=O)N[C@H](C(N)=O)C(C)C)[C@@H](C)CC)[C@@H](C)O)[C@@H](C)CC)[C@@H](C)CC)C(C)C)C(C)C
Take B3: in the experiment with CRF1R receptor, the “Emax (% I)” value was 6%. In addition, in experiment [1], the EC50 [nM] (cAMP) is 0.49 nM.

B4: SEQ ID NO 39 (peptide)
peptide: Ac-IVLSLDVPIKLK([γGlu-C16 diacid])KILLEQEKQKKQREQAETN[Aib]QILAQV-NH2
SMILES: CC[C@H](C)[C@H](NC(C)=O)C(=O)N[C@H](C(=O)N[C@@H](CC(C)C)C(=O)N[C@@H](CO)C(=O)N[C@@H](CC(C)C)C(=O)N[C@@H](CC(=O)O)C(=O)N[C@H](C(=O)N1CCC[C@H]1C(=O)N[C@H](C(=O)N[C@@H](CCCCN)C(=O)N[C@@H](CC(C)C)C(=O)N[C@@H](CCCCNC(=O)CC[C@H](NC(=O)CCCCCCCCCCCCCCC(=O)O)C(=O)O)C(=O)N[C@@H](CCCCN)C(=O)N[C@H](C(=O)N[C@@H](CC(C)C)C(=O)N[C@@H](CC(C)C)C(=O)N[C@@H](CCC(=O)O)C(=O)N[C@@H](CCC(N)=O)C(=O)N[C@@H](CCC(=O)O)C(=O)N[C@@H](CCCCN)C(=O)N[C@@H](CCC(N)=O)C(=O)N[C@@H](CCCCN)C(=O)N[C@@H](CCCCN)C(=O)N[C@@H](CCC(N)=O)C(=O)N[C@@H](CCCNC(=N)N)C(=O)N[C@@H](CCC(=O)O)C(=O)N[C@@H](CCC(N)=O)C(=O)N[C@@H](C)C(=O)N[C@@H](CCC(=O)O)C(=O)N[C@H](C(=O)N[C@@H](CC(N)=O)C(=O)NC(C)(C)C(=O)N[C@@H](CCC(N)=O)C(=O)N[C@H](C(=O)N[C@@H](CC(C)C)C(=O)N[C@@H](C)C(=O)N[C@@H](CCC(N)=O)C(=O)N[C@H](C(N)=O)C(C)C)[C@@H](C)CC)[C@@H](C)O)[C@@H](C)CC)[C@@H](C)CC)C(C)C)C(C)C
On to B4, for which the “Emax (% I)” value with CRF1R receptor stood at 2%. The molecule further gave an EC50 [nM] (cAMP) in experiment [1] of 0.53 nM.
